Results taken from publication PMC7891725, “Shared and distinct roles of Esc2 and Mms21 in suppressing genome rearrangements and regulating intracellular sumoylation” (PLoS ONE, 2021).

Molecular target: T1, N-terminal Protein-A tagged Esc2 (WT) (S. cerevisiae, UniProt Q06340 1-456)
T1 construct: Esc2, S. cerevisiae, protein with two SUMO-like domains (SLD1, SLD2); details of plasmid construction are available upon request; also called WT Esc2; ScEsc2; source: bacteria (BL21 cells), purified with IgG sepharose resin; not shown: Protein A, N-terminal, kept
T1 sequence (looked up): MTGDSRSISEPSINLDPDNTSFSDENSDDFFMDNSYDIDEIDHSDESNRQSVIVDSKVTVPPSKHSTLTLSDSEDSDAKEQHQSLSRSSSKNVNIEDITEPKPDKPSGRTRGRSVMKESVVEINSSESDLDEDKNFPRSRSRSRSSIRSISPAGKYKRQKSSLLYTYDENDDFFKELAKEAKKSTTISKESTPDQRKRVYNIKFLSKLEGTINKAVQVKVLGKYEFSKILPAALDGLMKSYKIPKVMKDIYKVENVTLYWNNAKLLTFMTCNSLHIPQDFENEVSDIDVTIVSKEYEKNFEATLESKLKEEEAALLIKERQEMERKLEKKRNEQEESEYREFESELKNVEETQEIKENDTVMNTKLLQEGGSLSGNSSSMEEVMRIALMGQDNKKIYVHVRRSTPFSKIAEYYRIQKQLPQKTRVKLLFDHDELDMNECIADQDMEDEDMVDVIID
Experiment: pull-down; 40 ug Protein-A-Esc2 (WT or D430R) bound to 20 uL IgG resin, incubated with 100 ug purified Ubc9 in 200 uL for 2 hours on ice; washed 5 times with PBS with 0.2% NP-40; bound Ubc9 eluted and seen by Coomassie staining
Conditions: both partners purified

binding result: binds
B1: C-terminal 6xHIS tagged Ubc9 (enzyme, S. cerevisiae, UniProt P50623 1-157, looked up)
chain: MSSLCLQRLQEERKKWRKDHPFGFYAKPVKKADGSMDLQKWEAGIPGKEGTNWAGGVYPITVEYPNEYPSKPPKVKFPAGFYHPNVYPSGTICLSILNEDQDWRPAITLKQIVLGVQDLLDSPNPNSPAQEPAWRSFSRNKAEYDKKVLLQAKQYSK
notes: Ubc9, SUMO E2 conjugating enzyme, S. cerevisiae; also called Ubc9 SUMO conjugating enzyme; E2
